Source: article PMC6724690 (Molecular Biology of the Cell, 2019)

Columns and labels:
[1] = target: porcine αβ-tubulin, as dynamic microtubules polymerizing from soluble αβ-tubulin (porcine) (UniProt P02550); experiment: TIRF microscopy of dynamic microtubules
[2] = target: the molecule itself; experiment: single-molecule fluorescence intensity distribution
[3] = target: porcine αβ-tubulin, as dynamic microtubules polymerizing from soluble αβ-tubulin (porcine) (UniProt P02550); experiment: single-molecule TIRF microscopy of dynamic microtubules

average MT plus-end tracking ratio [1] | average tracking time at MT plus ends [1] [s] | mean dwell time at polymerizing MT plus ends [3] [s] | Binder | stoichiometry N [2]
0.89 | 125 |  | Alp14 (residues 1–690) C-terminally fused to mNeonGreen (domain or fragment) MSQDQEEDYSKLPLESRIVHKVWKVRLSAYEECSKSFSLSADGSDNCFELWNNQSELWKSVLTDSNVAAQEAGTAAFVAYCRFSDPSHLLKAREISVLSISEKCLTSPRAGTRENALEALMLLVEADSAAPVIESIIPSLSARSPKVIASNVAAIASLVEQFGAKVIPSKMIIPHISNLFGHADKNVRKEASRLTVNIYRWTGDPLKDLLFKDLRPVQTKELESLFAELPTEPPKQTRFLKSQQPTSEPNVETQVEEQPALENEESEPEPSDDQFDLVEEVDVLPNVDPNLETLMASSKWKDRKEALDKLLPVLSQPKIKDNDFFNLVAILTKSVSKDANIMVVINAAHCIQAMAKGLRSNFSKYASTSINALLERSKEKKANVIESLSSAMDAVLATSSLDDLAELIASFAGNKNPQIKSSCFSLFSRSFSNMTSLPSKFTVDTCAKACVPGVSDTFEPVRSAAAEALGVLMKLVGERAINQYLSPLDDIRKSKIRSFYETATVKAKAPTKKSKVKPSKQEESKVVVPSNAKAVKKSVVPSSPVVPSPRKATNKSLSMDVSKGNAFENGPLLPRPTTRPVSRGLSRGTSSSLQQKVKASTPLNSGALNETVQNLKNMELDDPAPQPAKHSRVDRYEHPKVLEDNDSTISSLESLKRENEELREQLKVEHEENISMQKQLSELKGELNTL | 
 |  | 129 | C-terminal-SNAPf-tagged Alp14 (residues 1–690), labelled with SNAP-surface Atto-488 (domain or fragment, S. pombe, UniProt O94534 1-690, looked up, SNAP-surface Atto-488 fluorophore covalently attached to the SNAP tag) MSQDQEEDYSKLPLESRIVHKVWKVRLSAYEECSKSFSLSADGSDNCFELWNNQSELWKSVLTDSNVAAQEAGTAAFVAYCRFSDPSHLLKAREISVLSISEKCLTSPRAGTRENALEALMLLVEADSAAPVIESIIPSLSARSPKVIASNVAAIASLVEQFGAKVIPSKMIIPHISNLFGHADKNVRKEASRLTVNIYRWTGDPLKDLLFKDLRPVQTKELESLFAELPTEPPKQTRFLKSQQPTSEPNVETQVEEQPALENEESEPEPSDDQFDLVEEVDVLPNVDPNLETLMASSKWKDRKEALDKLLPVLSQPKIKDNDFFNLVAILTKSVSKDANIMVVINAAHCIQAMAKGLRSNFSKYASTSINALLERSKEKKANVIESLSSAMDAVLATSSLDDLAELIASFAGNKNPQIKSSCFSLFSRSFSNMTSLPSKFTVDTCAKACVPGVSDTFEPVRSAAAEALGVLMKLVGERAINQYLSPLDDIRKSKIRSFYETATVKAKAPTKKSKVKPSKQEESKVVVPSNAKAVKKSVVPSSPVVPSPRKATNKSLSMDVSKGNAFENGPLLPRPTTRPVSRGLSRGTSSSLQQKVKASTPLNSGALNETVQNLKNMELDDPAPQPAKHSRVDRYEHPKVLEDNDSTISSLESLKRENEELREQLKVEHEENISMQKQLSELKGELNTL | 2
